The values below come from patent CN116370651A (SHANGHAI YUANZHI BIO TECH CO LTD, dated 2023).

This assay deals with T1, 重组PSMA蛋白 (human, UniProt Q04609 44-750).
T1 construct: also called 人PSMA蛋白; 人PSMA重组蛋白
In words: SPR (Biacore); recombinant PSMA immobilised on CM5 chip, J591 as analyte at 0.125-4.0 μg/mL.

For orientation: Kd means the concentration at which binding is half-saturated.

T1 sequence (Q04609 44-750 limits assumed): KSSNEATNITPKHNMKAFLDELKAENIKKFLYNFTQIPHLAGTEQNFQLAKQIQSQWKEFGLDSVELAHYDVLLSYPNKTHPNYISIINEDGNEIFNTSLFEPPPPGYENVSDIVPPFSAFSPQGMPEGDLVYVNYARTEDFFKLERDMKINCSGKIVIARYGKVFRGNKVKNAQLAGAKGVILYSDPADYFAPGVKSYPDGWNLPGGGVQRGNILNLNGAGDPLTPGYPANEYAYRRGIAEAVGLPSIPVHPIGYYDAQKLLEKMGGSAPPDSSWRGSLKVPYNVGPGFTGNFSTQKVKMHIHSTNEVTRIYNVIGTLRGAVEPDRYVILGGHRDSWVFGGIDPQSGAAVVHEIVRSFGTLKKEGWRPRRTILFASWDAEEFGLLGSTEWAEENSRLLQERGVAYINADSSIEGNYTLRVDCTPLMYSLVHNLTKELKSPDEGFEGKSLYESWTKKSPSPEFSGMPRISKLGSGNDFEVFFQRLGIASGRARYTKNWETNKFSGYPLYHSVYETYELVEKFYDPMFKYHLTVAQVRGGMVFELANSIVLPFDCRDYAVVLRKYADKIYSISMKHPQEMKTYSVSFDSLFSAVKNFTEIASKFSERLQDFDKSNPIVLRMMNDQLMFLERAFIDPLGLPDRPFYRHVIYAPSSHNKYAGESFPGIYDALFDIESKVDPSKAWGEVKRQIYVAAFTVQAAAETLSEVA

B1: 人源化单抗J591 (antibody, V domains shown)
VH: EVQLQQSGPELKKPGTSVRISCKTSGYTFTEYTIHWVKQSHGKSLEWIGNINPNNGGTTYNQKFEDKATLTVDKSSSTAYMELRSLTSEDSAVYYCAAGWNFDYWGQGTTLTVSS
VL: DIVMTQSHKFMSTSVGDRVSIICKASQDVGTAVDWYQQKPGQSPKLLIYWASTRHTGVPDRFTGSGSGTDFTLTITNVQSEDLADYFCQQYNSYPLTFGAGTMLDLK
notes: Expressed from pcDNA3.0 in suspension host cells and purified on Protein A; also called 人源化抗体J591; J591单抗
Turning to B1, the Kd was 1.61 nM.
